Test results: paper doi:10.1101/2020.06.03.131664 (2020)

Experiments:
Assay in all cases: SPR; bivalent fitting model
[1] = target: HAdV-D26 capsid (human adenovirus type 26, species D, replication-defective vector particle) (human adenovirus type 26 (species D))
[2] = target: HAdV-B35 capsid (human adenovirus type 35, species B, replication-defective vector particle) (human adenovirus type 35 (species B))
[3] = target: HAdV-C5 capsid (human adenovirus type 5, species C, replication-defective vector particle) (human adenovirus type 5 (species C), UniProt P04133 1-952)
HAdV-C5 capsid (human adenovirus type 5, species C, replication-defective vector particle), sequence (P04133 whole entry, looked up): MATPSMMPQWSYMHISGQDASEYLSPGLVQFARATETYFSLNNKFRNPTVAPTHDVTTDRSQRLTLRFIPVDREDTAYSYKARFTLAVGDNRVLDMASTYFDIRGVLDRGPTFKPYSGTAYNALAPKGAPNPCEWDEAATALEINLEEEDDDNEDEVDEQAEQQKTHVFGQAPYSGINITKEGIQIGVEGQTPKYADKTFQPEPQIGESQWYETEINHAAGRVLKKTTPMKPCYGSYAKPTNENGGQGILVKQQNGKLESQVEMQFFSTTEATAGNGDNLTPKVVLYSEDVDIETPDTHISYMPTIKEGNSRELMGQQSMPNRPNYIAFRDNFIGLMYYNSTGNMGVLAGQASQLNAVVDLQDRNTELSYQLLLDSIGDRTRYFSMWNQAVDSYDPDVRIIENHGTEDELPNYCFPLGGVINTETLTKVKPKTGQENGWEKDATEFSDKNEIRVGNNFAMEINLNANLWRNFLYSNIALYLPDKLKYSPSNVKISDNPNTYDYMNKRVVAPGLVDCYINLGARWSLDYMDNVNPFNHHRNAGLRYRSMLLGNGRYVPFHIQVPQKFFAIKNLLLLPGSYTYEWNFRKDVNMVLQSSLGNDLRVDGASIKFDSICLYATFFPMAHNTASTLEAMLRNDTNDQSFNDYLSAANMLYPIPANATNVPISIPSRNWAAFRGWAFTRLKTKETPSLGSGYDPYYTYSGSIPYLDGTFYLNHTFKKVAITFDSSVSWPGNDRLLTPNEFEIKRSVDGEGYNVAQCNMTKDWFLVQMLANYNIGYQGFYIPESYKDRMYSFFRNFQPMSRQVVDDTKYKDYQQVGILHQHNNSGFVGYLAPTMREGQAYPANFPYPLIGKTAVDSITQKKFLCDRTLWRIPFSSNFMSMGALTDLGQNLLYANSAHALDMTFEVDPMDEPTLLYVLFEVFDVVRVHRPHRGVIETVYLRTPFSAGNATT

B1: human lactoferrin (natural protein)
chain: GRRRSVQWCAVSQPEATKCFQWQRNMRKVRGPPVSCIKRDSPIQCIQAIAENRADAVTLDGGFIYEAGLAPYKLRPVAAEVYGTERQPRTHYYAVAVVKKGGSFQLNELQGLKSCHTGLRRTAGWNVPIGTLRPFLNWTGPPEPIEAAVARFFSASCVPGADKGQFPNLCRLCAGTGENKCAFSSQEPYFSYSGAFKCLRDGAGDVAFIRESTVFEDLSDEAERDEYELLCPDNTRKPVDKFKDCHLARVPSHAVVARSVNGKEDAIWNLLRQAQEKFGKDKSPKFQLFGSPSGQKDLLFKDSAIGFSRVPPRIDSGLYLGSGYFTAIQNLRKSEEEVAARRARVVWCAVGEQELRKCNQWSGLSEGSVTCSSASTTEDCIALVLKGEADAMSLDGGYVYTAGKCGLVPVLAENYKSQQSSDPDPNCVDRPVEGYLAVAVVRRSDTSLTWNSVKGKKSCHTAVDRTAGWNIPMGLLFNQTGSCKFDEYFSQSCAPGSDPRSNLCALCIGDEQGENKCVPNSNERYYGYTGAFRCLAENAGDVAFVKDVTVLQNTDGNNNEAWAKDLKLADFALLCLDGKRKPVTEARSCHLAMAPNHAVVSRMDKVERLKQVLLHQQAKFGRNGSDCPDKFCLFQSETKNLLFNDNTECLARLHGKTTYEKYLGPQYVAGITNLKKCSTSPLLEACEFLRK
B1 was tested, and the Kd [1] was 2550 nM, the Kd [2] was 54000 nM and the Kd [3] was 800 nM.
